Where two headings read alike, the source gives them in different places.
How the values were obtained:
[1] = molecular target: H1 HA A/Solomon Islands/03/2006 (H1N1), recombinant soluble trimer (influenza A virus); experiment: ELISA
[2] = molecular target: H1 HA A/Texas/36/1991 (H1N1), recombinant soluble trimer (influenza A virus); experiment: ELISA
[3] = molecular target: H13 HA A/gull/Maryland/704/1977, recombinant (influenza A virus); experiment: ELISA
[4] = molecular target: H14 HA A/mallard duck/Astrakhan/263/1982, recombinant (influenza A virus); experiment: ELISA
[5] = molecular target: H16 HA A/black-headed gull/Sweden/4/1999, recombinant (influenza A virus); experiment: ELISA
[6] = molecular target: H2 HA A/Singapore/1/1957, recombinant soluble trimer (influenza A virus); experiment: ELISA
[7] = molecular target: H3 HA A/Minnesota/11/10, recombinant soluble trimer (influenza A virus); experiment: ELISA
[8] = molecular target: H3 HA A/Switzerland/9715293/2013, recombinant soluble trimer (influenza A virus); experiment: ELISA
[9] = molecular target: H3 HA A/Texas/50/2012, recombinant soluble trimer (influenza A virus); experiment: ELISA
[10] = molecular target: H5 HA A/Indonesia/05/2005 (H5N1), recombinant (influenza A virus); experiment: ELISA
[11] = molecular target: H5 HA A/Vietnam/1203/2004 (H5N1), recombinant (influenza A virus); experiment: ELISA
[12] = molecular target: H7 HA A/New York/107/2003, recombinant (influenza A virus); experiment: ELISA
[13] = molecular target: H7 HA A/Shanghai/2/2013 (H7N9), recombinant uncleaved trimer (influenza A virus); experiment: ELISA
[14] = molecular target: H9 HA A/Hong Kong/1073/99, recombinant (influenza A virus); experiment: ELISA
[15] = molecular target: H7 HA A/New York/107/2003, recombinant (influenza A virus)
[16] = molecular target: purified HA protein of H1N1 A/California/07/2009 (Sino Biological 11085-V08B) (influenza A virus); experiment: cell-based or functional assay
[17] = molecular target: A/California/07/2004 (Influenza A virus); experiment: ELISA on coated recombinant HA
[18] = molecular target: A/Chicken/Germany/N/1949 (Influenza A virus); experiment: ELISA on coated recombinant HA
[19] = molecular target: A/Duck/Czechoslovakia/1956 (Influenza A virus); experiment: ELISA on coated recombinant HA
[20] = molecular target: A/Fort Monmouth/1/1947 (Influenza A virus); experiment: ELISA on coated recombinant HA
[21] = molecular target: A/Taiwan/2/2013 (Influenza A virus); experiment: ELISA on coated recombinant HA
[22] = molecular target: A/Turkey/Wisconsin/1/1966 (Influenza A virus); experiment: ELISA on coated recombinant HA
[23] = molecular target: H1 HA A/Solomon Islands/03/2006 (H1N1), recombinant soluble trimer (influenza A virus); experiment: ELISA on coated recombinant HA
[24] = molecular target: H1 HA A/Texas/36/1991 (H1N1), recombinant soluble trimer (influenza A virus); experiment: ELISA on coated recombinant HA
[25] = molecular target: H12 HA A/duck/Alberta/60/1976, recombinant (influenza A virus); experiment: ELISA on coated recombinant HA
[26] = molecular target: H14 HA A/mallard duck/Astrakhan/263/1982, recombinant (influenza A virus); experiment: ELISA on coated recombinant HA
[27] = molecular target: H15 HA A/shearwater/Western Australia/2576/1979, recombinant (influenza A virus); experiment: ELISA on coated recombinant HA
[28] = molecular target: H2 HA A/Singapore/1/1957, recombinant soluble trimer (influenza A virus); experiment: ELISA on coated recombinant HA
[29] = molecular target: H3 HA A/Texas/50/2012, recombinant soluble trimer (influenza A virus); experiment: ELISA on coated recombinant HA
[30] = molecular target: H5 HA A/Indonesia/05/2005 (H5N1), recombinant (influenza A virus); experiment: ELISA on coated recombinant HA
[31] = molecular target: H5 HA A/Vietnam/1203/2004 (H5N1), recombinant (influenza A virus); experiment: ELISA on coated recombinant HA
[32] = molecular target: H7 HA A/Shanghai/2/2013 (H7N9), recombinant uncleaved trimer (influenza A virus); experiment: ELISA on coated recombinant HA
[33] = molecular target: A/Hong Kong/125/2017 (Influenza A virus); experiment: ELISA on coated recombinant HA
[34] = molecular target: A/Puerto Rico/8/1934 (Influenza A virus); experiment: ELISA on coated recombinant HA
[35] = molecular target: A/Taiwan/2/2013 (Influenza A virus); experiment: ELISA on coated recombinant HA; remark: listed apart in the source
[36] = molecular target: A/Tennessee/3/2019 (Influenza A virus); experiment: ELISA on coated recombinant HA
[37] = molecular target: A/Turkey/Ontario/6118/1967 (Influenza A virus); experiment: ELISA on coated recombinant HA
[38] = molecular target: A/Yokohama/110/2019 (Influenza A virus); experiment: ELISA on coated recombinant HA
[39] = molecular target: H2 HA A/Singapore/1/1957, recombinant soluble trimer (influenza A virus); experiment: ELISA on coated recombinant HA; remark: listed apart in the source
[40] = molecular target: H3 HA A/Texas/50/2012, recombinant soluble trimer (influenza A virus); experiment: ELISA on coated recombinant HA; remark: listed apart in the source
[41] = molecular target: H5 HA A/Indonesia/05/2005 (H5N1), recombinant (influenza A virus); experiment: ELISA on coated recombinant HA; remark: listed apart in the source
[42] = molecular target: H5 HA A/Vietnam/1203/2004 (H5N1), recombinant (influenza A virus); experiment: ELISA on coated recombinant HA; remark: listed apart in the source
[43] = molecular target: H1 HA A/Texas/36/1991 (H1N1), recombinant soluble trimer (influenza A virus); experiment: ELISA on coated recombinant HA; row printed A/Texas/38/1991
[44] = molecular target: A/Duck/Czechoslovakia/1956 (Influenza A virus); experiment: ELISA on coated recombinant HA; row printed A/Duck/Czechoslovakia/1958
[45] = molecular target: H12 HA A/duck/Alberta/60/1976, recombinant (influenza A virus); experiment: ELISA on coated recombinant HA; remark: listed apart in the source
[46] = molecular target: H3 HA A/Hong Kong/1/1968 (H3N2), recombinant soluble trimer (influenza A virus) (UniProt Q91MA7); experiment: ELISA on coated recombinant HA
[47] = molecular target: H1 HA A/Solomon Islands/03/2006 (H1N1), recombinant soluble trimer (influenza A virus); experiment: BLI, biotinylated HA on streptavidin sensor
[48] = molecular target: H3 HA A/Victoria/3/1975 (H3N2) (influenza A virus); experiment: BLI, biotinylated HA on streptavidin sensor
[49] = molecular target: H3 HA A/Victoria/361/2011 (H3N2) (influenza A virus); experiment: BLI, biotinylated HA on streptavidin sensor
[50] = molecular target: H5 HA A/Indonesia/05/2005 (H5N1), recombinant (influenza A virus); experiment: BLI, biotinylated HA on streptavidin sensor
[51] = molecular target: H5 HA A/Vietnam/1203/2004 (H5N1), recombinant (influenza A virus); experiment: BLI, biotinylated HA on streptavidin sensor
[52] = molecular target: H12 HA A/duck/Alberta/60/1976, recombinant (influenza A virus); experiment: ELISA
[53] = molecular target: H15 HA A/shearwater/Western Australia/2576/1979, recombinant (influenza A virus); experiment: ELISA
[54] = molecular target: eHead-H3HK68_v1 (wild-type H3 head domain monomer) (influenza A virus) (UniProt Q91MA7); experiment: SPR
[55] = molecular target: eHead_H1Solomon (wild-type H1 head domain monomer) (influenza A virus) (UniProt B4URD6); experiment: SPR

FluA-20 (hybridoma-produced IgG) (antibody)
EC50 [1]: 0.005 µg/mL | EC50 [2]: 0.004 µg/mL | EC50 [3]: 0.07 µg/mL | EC50 [4]: 0.013 µg/mL | EC50 [5]: > 10 µg/mL | EC50 [6]: 0.007 µg/mL | EC50 [7]: > 10 µg/mL | EC50 [8]: 0.019 µg/mL | EC50 [9]: 0.004 µg/mL | EC50 [10]: 0.085 µg/mL | EC50 [11]: 0.283 µg/mL | EC50 [12]: 0.808 µg/mL | EC50 [13]: 0.066 µg/mL | EC50 [14]: 0.009 µg/mL | EC50 [15]: > 2.5 µg/mL | NK cell activation (% of NK cells with IFN-γ and/or CD107a) at 0.1 µg/mL FluA-20 [16]: 1.3% | NK cell activation (% of NK cells with IFN-γ and/or CD107a) at 1 µg/mL FluA-20 [16]: 9.2% | NK cell activation (% of NK cells with IFN-γ and/or CD107a) at 10 µg/mL FluA-20 [16]: 14.6% | EC50 [17]: 0.008 µg/mL | EC50 [18]: 0.037 µg/mL | EC50 [19]: 0.007 µg/mL | EC50 [20]: 0.007 µg/mL | EC50 [21]: 0.061 µg/mL | EC50 [22]: 0.022 µg/mL | EC50 [23]: 0.008 µg/mL | EC50 [24]: 0.009 µg/mL | EC50 [25]: 0.006 µg/mL | EC50 [26]: 0.007 µg/mL | EC50 [27]: 0.007 µg/mL | EC50 [28]: 0.009 µg/mL | EC50 [29]: 0.006 µg/mL | EC50 [30]: 0.016 µg/mL | EC50 [31]: 0.142 µg/mL | EC50 [32]: 0.012 µg/mL | EC50 [33]: 0.009 µg/mL | EC50 [34]: 0.005 µg/mL | EC50 [35]: 0.073 µg/mL | EC50 [36]: 0.007 µg/mL | EC50 [37]: 0.004 µg/mL | EC50 [38]: 0.009 µg/mL | EC50 [39]: 0.007 µg/mL | EC50 [40]: 0.008 µg/mL | EC50 [41]: 0.015 µg/mL | EC50 [42]: 0.036 µg/mL | EC50 [43]: 0.021 µg/mL | EC50 [44]: 0.006 µg/mL

MEDI-8852 (antibody)
EC50 [15]: 0.117 µg/mL | EC50 [33]: 0.069 µg/mL | EC50 [34]: 0.013 µg/mL | EC50 [35]: 0.157 µg/mL | EC50 [36]: 0.014 µg/mL | EC50 [37]: 0.081 µg/mL | EC50 [38]: 0.043 µg/mL | EC50 [45]: 0.361 µg/mL | EC50 [39]: 0.023 µg/mL | EC50 [46]: 0.014 µg/mL | EC50 [40]: 0.024 µg/mL | EC50 [41]: 0.134 µg/mL | EC50 [42]: 0.009 µg/mL | EC50 [43]: 0.063 µg/mL | EC50 [44]: 0.018 µg/mL

rFluA-20 Fab
Kd [47]: 2 nM | Kd [48]: 3460 nM | Kd [49]: 15 nM | Kd [50]: 88 nM | Kd [51]: 122 nM

rFluA-20 IgG (recombinant FluA-20) (antibody)
EC50 [1]: 0.008 µg/mL | EC50 [2]: 0.008 µg/mL | EC50 [52]: 0.006 µg/mL | EC50 [4]: 0.007 µg/mL | EC50 [53]: 0.007 µg/mL | EC50 [6]: 0.011 µg/mL | EC50 [9]: 0.007 µg/mL | EC50 [10]: 0.016 µg/mL | EC50 [13]: 0.013 µg/mL | EC50 [14]: 0.007 µg/mL | EC50 [17]: 0.009 µg/mL | EC50 [18]: 0.041 µg/mL | EC50 [19]: 0.007 µg/mL | EC50 [20]: 0.007 µg/mL | EC50 [21]: 0.063 µg/mL | EC50 [22]: 0.016 µg/mL | EC50 [23]: 0.008 µg/mL | EC50 [24]: 0.008 µg/mL | EC50 [25]: 0.006 µg/mL | EC50 [26]: 0.007 µg/mL | EC50 [27]: 0.007 µg/mL | EC50 [28]: 0.011 µg/mL | EC50 [29]: 0.007 µg/mL | EC50 [30]: 0.016 µg/mL | EC50 [31]: 0.133 µg/mL | EC50 [32]: 0.013 µg/mL

C05 (antibody)
Kd [54]: 170 nM | Kd [55]: 86 nM

CH65 (antibody)
Kd [55]: 340 nM
